For the test, the target named is SARS-CoV-2 Wuhan spike receptor-binding domain (RBD), His-tagged (SARS-CoV-2) (UniProt P0DTC2). Nature of the test: ELISA.

Substance “WTL_3H, wild-type-like tri-helical ACE2 fragment (from UniProt Q9BYF1 18-805) (domain or fragment)” showed an EC50 of 253 nM and a Kd of 192 nM.
